The numbers were not newly measured in article PMC4492699, which cites them from elsewhere.

The Kd is the constant that tells how readily two partners part at equilibrium.

In this data set the target is HER2 (Homo sapiens) (UniProt P04626).

For the substance trastuzumab, the Kd is 0.1 nM.
